{"source": "paper PMC7227451", "about": "(Cellular and Molecular Immunology, 2020)", "binders": {"B1": {"name": "80R (antibody, V domains shown)", "VH": "EVQLVQSGGGVVQPGKSLRLSCAASGFAFSSYAMHWVRQAPGKGLEWVAVISYDGSNKYYADSVKGRFTISRDNSKNTLYLQMNSLRAEDTAVYYCARDRSYYLDYWGQGTLVTVSS", "VL": "ETTLTQSPATLSLSPGERATLSCRASQSVRSNLAWYQQKPGQAPRPLIYDASTRATGIPDRFSGSGSGTDFTLTISRLEPEDFAVYYCQQRSNWPPTFGQGTKVEVK"}}, "target": "T1, SARS-CoV-2 RBD-hFc (SARS-CoV-2, UniProt P0DTC2)", "T1 construct": "not shown: Fc (human IgG1), C-terminal, kept", "assay": "ELISA", "conditions": "both partners purified"}
{"binder": "B1", "values": [{"measurement": "binding result", "result": "no binding"}]}
